Data from patent US20230192845A1 (BLINK BIOMEDICAL, published 2023).

T1: human CD96 short isoform v2 expressed on CHO cells (human, UniProt P40200 22-585)
T1 construct: also called hCD96v2; CD96v2; not shown: C-terminal HA-tag
T1 sequence: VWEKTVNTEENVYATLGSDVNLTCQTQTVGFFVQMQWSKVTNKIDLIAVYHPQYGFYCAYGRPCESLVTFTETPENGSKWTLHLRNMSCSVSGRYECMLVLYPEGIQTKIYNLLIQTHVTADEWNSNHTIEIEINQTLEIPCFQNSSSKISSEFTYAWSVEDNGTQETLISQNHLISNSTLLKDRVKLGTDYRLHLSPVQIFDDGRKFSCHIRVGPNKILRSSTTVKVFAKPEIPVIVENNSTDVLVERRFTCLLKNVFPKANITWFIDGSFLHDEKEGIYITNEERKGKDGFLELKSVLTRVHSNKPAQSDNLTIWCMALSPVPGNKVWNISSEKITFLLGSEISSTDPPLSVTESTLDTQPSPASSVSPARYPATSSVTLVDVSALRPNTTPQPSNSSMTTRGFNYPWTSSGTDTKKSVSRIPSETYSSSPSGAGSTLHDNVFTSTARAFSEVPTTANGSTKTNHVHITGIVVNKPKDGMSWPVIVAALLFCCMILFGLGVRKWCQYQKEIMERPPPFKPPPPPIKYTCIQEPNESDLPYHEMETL

T2: mouse CD96 expressed on CHO cells (mouse, UniProt Q3U0X8 22-602)
T2 construct: whole, on cells; also called mCD96
T2 sequence (looked up): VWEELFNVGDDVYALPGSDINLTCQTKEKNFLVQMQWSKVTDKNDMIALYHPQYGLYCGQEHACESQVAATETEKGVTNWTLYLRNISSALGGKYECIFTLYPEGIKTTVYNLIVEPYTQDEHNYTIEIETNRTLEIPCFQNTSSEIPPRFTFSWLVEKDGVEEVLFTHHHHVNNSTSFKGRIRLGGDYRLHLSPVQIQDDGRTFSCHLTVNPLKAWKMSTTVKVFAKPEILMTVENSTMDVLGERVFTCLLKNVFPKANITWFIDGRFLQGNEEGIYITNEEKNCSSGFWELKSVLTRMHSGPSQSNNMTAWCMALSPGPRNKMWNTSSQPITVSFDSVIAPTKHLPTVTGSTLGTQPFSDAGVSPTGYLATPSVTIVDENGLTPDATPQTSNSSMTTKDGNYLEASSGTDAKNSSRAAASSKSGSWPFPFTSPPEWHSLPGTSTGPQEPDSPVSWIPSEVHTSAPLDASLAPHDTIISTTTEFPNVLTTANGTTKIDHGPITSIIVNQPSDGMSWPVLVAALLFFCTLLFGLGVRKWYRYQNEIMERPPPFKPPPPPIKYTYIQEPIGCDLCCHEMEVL

T3: rhesus CD96 transiently expressed on CHO cells (rhesus, UniProt P40200 22-585 (human entry))
T3 construct: also called rhesus CD96, short isoform
T3 chain: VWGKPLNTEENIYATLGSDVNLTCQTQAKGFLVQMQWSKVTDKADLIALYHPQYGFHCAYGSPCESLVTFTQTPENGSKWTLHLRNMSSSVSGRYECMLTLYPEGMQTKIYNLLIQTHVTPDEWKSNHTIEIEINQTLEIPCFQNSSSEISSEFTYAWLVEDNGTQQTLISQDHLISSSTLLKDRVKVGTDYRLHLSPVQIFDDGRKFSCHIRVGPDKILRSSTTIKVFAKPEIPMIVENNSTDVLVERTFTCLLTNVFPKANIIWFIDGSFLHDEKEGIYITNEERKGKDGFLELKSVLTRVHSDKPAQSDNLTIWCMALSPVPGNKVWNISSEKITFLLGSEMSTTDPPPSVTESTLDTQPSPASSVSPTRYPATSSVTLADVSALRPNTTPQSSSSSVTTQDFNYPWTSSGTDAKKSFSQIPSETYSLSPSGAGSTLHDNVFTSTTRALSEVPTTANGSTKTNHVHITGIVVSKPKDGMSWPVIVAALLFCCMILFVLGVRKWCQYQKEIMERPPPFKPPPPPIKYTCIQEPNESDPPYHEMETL


Legend:
[1] = biological target: T1, human CD96 short isoform v2 expressed …; test: FCM on hCD96v2-CHO cells
Experimental: FIG. 6: Binding profiles of anti-hCD96 antibodies on human CD96-transfected CHO cells (hCD96v2, short isoform). CHO cells expressing hCD96v2 were incubated with serial dilution of the indicated mIgG1 or mIgG2a anti-CD96 or isotype control antibodies. […] The results are expressed as the difference of mean fluorescence intensity (delta MFI) between cells stained with antibodies and cells without antibodies. Dose response curves were obtained from GraphPad prism software using a non-linear regression fit with a variable slope model (4 parameters). To simplify the reading, results from the various anti-hCD96 candidates are shown on 4 different panels.
The capacity of the identified mouse anti-CD96 antibodies to recognize the cell membrane expressed human CD96 was further analyzed by flow cytometry (FCM) by using CHO cells stably transfected with the CD96 short isoform v2 (CD96v2; Genbank accession number NM_005816, flanked in C-terminus with HA-tag) (SEQ ID NO: 268).
Mouse anti-CD96 antibodies and isotype control antibodies were incubated at various concentrations from 10 μg/mL to 4.6 ng/mL with CHO cells expressing human CD96 at +4° C. for 30 minutes. […] The differences between the mean fluorescence intensity (MFI) obtained for each of the antibody concentration and the intensity obtained in absence of primary antibody (delta-MFI), were calculated and plotted against the concentrations of antibodies.

[2] = biological target: T2, mouse CD96 expressed on CHO cells; test: FCM on CHO cells expressing mouse CD96
Text: (§1) The capacity of the identified mouse anti-human CD96 antibodies to recognize the CD96 protein from other species was further analyzed by flow cytometry by using CHO cells expressing the mouse or the rhesus CD96. The expression of the species-specific CD96 on CHO cell surface was confirmed by using staining with appropriate anti-CD96 antibodies and flow cytometry on non-fixed cells. The rat anti-mCD96 antibody clone #630612 (R&D Systems) and the candidate BL006-9-1 (positive by ELISA on rhesus CD96) were used to confirm the expression of rhesus CD96, while the clone 6A6 (rat IgG2a, e-Bioscience) was used to verify the expression of mouse CD96.
(§2) Mouse anti-CD96 antibodies and isotype control antibodies were incubated at 10 or 1 μg/mL with CHO cells expressing different CD96 species at +4° C. for 30 minutes.

[3] = biological target: T1, human CD96 short isoform v2 expressed …; test: FCM, inhibition of hCD155-Fc binding to hCD96v2-CHO cells
Experimental: All candidates except BL006-2-19 that bound very weakly on hCD96v2 by FCM were tested for their capacity to inhibit the binding of human CD155 to hCD96v2 stably expressed on CHO cells. Human CD96-transfected CHO cells (3×10⁵ cells/well of 96-well plate) were incubated at +4° C. for 30 minutes with serial dilutions of anti-CD96 antibodies or isotype control antibody (in mIgG2a or mIgG2aD265A format) in the presence of 4 μg/mL of biotinylated hCD155-Fc (produced and biotinylated at BliNK).
% inhibition=(1−(MFI_wAb&CD155−MFI_CHO)/(MFI_wCD155−MFI_CHO))×100, where MFI_wAb&CD155 is the Mean Intensity Fluorescence (MFI) obtained with the hCD96-CHO cells incubated with the tested antibody and hCD155-hFc; MFI_CHO is the MFI obtained in the absence of hCD155 and mAbs; and MFI_wCD155 is the fluorescence with hCD155 but without pre-incubation with antibody (0% CD155 binding inhibition). The % of inhibition was plotted against antibody concentration and the IC50 values were calculated by using a nonlinear regression analysis model of the GraphPad Prism software.

[4] = biological target: T3, rhesus CD96 transiently expressed on …; test: flow cytometry on CHO cells transiently expressing rhesus CD96; antibody at 1 (thin line) and 10 µg/ml (thick dashed line), filled grey = isotype control
Experimental: FIG. 7: Binding profiles of anti-CD96 antibodies on CHO cells transfected with rhesus CD96. Anti-CD96 antibodies or the corresponding isotype control mAbs were tested for their capacity to recognize rhesus CD96 transiently expressed on CHO cells by flow cytometry. Each histogram represents the overlay of the fluorescence intensity obtained for each antibody tested at 1 (black line) and 10 μg/ml (thick dashed black line) and compared to the fluorescence obtained with an isotypic control (filled grey histogram).
as §1, §2

Binder	EC50 [1]	Maximum binding (delta MFI) [1]	binding result [2]	IC50 [3]	Maximal Inhibition Capacity (%) [3]	binding result [4]
BL006-19-21G1-21K1 (antibody, V domains shown, Recombinant mIgG2a/kappa (also made as mIgG2a-D265A); also called candidate NO 13) VH: QVQLQQPGAELVKPGASVKMSCKASGYTFISYWITWVKQRPGQGLEWIGDIYPGSGHTNYNEKFKSKATLTVDTSSSTAYMQLSSLTSEDSAVYYCARPTVEAMDYWGQGTSVTVSS VL: QIVLTQSPAIMSASPGEKVTMTCSASSSVNYMHWYQQRSGTSPKRWIYDTSKLASGVPARFSGSGSGTSYSLTISSMEAEDAATYYCQQWSNNPLTFGAGTKLELK	6.53 nM	599000 delta MFI	no binding (tested: 1 and 10 µg/mL)	19.4 nM	100%	binds
BL006-11-5G1-5K3 (antibody, V domains shown, Recombinant mIgG2a/kappa (also made as mIgG2a-D265A); also called BL006-11-5G1-5K3 #5; candidate NO 5) VH: EVQLVESGGGLVKPGGSLKLSCAASGFTFSSYAMSWVRQTPEKRLEWVAAINTDGASTYFPATVKDRFTISRDNAKNTLYLQMSSLRSEDTALYYCARPLEPGSWFAYWGQGTLVTVSA VL: DVLMTQTPLSLPVSLGDQASISCRSSQSIVHSNGNTYLEWYLQKPGQSPKVLIYKVSNRFSGVPDRISGSGSGTDFTLKISRVEAGDLGVYYCFQGSHVPYTFGGGTKLEIK	12.8 nM	373000 delta MFI	no binding (tested: 1 and 10 µg/mL)	–	< 5%	no binding (tested: 10 µg/ml)
BL006-9-1G1-1K1 (antibody, V domains shown, Recombinant mIgG2a/kappa (also made as mIgG2a-D265A); also called candidate NO 11) VH: EVKLVESGGGLVKPGGSLKLSCAASGFTFSSYAMSWVRQTPERGLEWVAAIQSNGGSTFYPDTVKDRFTISRDNAKNTLYLQMSSLRSEDTALYYCVRGPFDYWGQGTTLTVSS VL: QIVLTQSPAIMSASPGQKVTIPCSASSSVNYIHWFQQKLGSSPKLWIYDTSKLTPGVPARFSGSGSGTSYSLTISSMEAEDAASYFCHQWRSYPPTFGGGTKLEIK	17.5 nM	514000 delta MFI	no binding (tested: 1 and 10 µg/mL)	–	< 5%	binds

Now those with a lower EC50 [1], led by results:

EC50 [1]	Maximum binding (delta MFI) [1]	binding result [2]	IC50 [3]	Maximal Inhibition Capacity (%) [3]	binding result [4]	Binder
4.56 nM	681000 delta MFI	no binding (tested: 1 and 10 µg/mL)	15 nM	100%	no binding (tested: 10 µg/ml)	BL006-19-183G3-183K4 (antibody, V domains shown, Recombinant mIgG2a/kappa (also made as mIgG2a-D265A); also called BL006-19-183G3-183K4 #3; candidate NO 8) VH: QVTLNESGPGILQPSQTLSLTCSFSGFSLTTYGMGVGWIRQPSGKSLEWLANIWWTEDKYYNSALKSRLTISTDTSHNQVFLKISSVDTEDTATYYCAQMGPEVYSAMDYWGQGTSVTVSS VL: DIVMTPSQKFMSTTVGDRVSITCKASQNVGTAVAWYQQKPGHSPKLLIYSASNRNTGVPDRFTGSGSGTDFTLTISNMQSEDLADYFCHQYSRYPWTFGGGTKLEIK
3.39 nM	711000 delta MFI	no binding (tested: 1 and 10 µg/mL)	11.5 nM	98.1%	no binding (tested: 10 µg/ml)	BL006-19-190G4-190K6 (antibody, V domains shown, Recombinant mIgG2a/kappa (also made as mIgG2a-D265A); also called candidate NO 16) VH: EVQLVESGGGLVQPGGSLKLSCAASGFTFSNYGMSWVRQTPDKRLELVATINSNGGSTYYPDSVKGRFTISRDNAKNTLYLQMSSLKSEDTAMYYCTKRGAWYFDVWGTGTTVTVSS VL: DIQMTQSSSSFSVSLGDRVTITCKASEDIYNRLAWYQQKPGNAPRLLISSATSLETGVSSRFSGSGSGKDYTLSITSLQTEDVATYYCQQYWTTPTWTFGGGTKLEIK
3.3 nM	636000 delta MFI	no binding (tested: 1 and 10 µg/mL)	8.84 nM	98.3%	binds	BL006-19-55G10-55K7 (antibody, V domains shown, Recombinant mIgG2a/kappa (also made as mIgG2a-D265A); also called candidate NO 15) VH: QVQLQQSGAEVVRPGTSVKMSCKAAGYTFTDNWIDWVKQRPGHGLDWIGNIFPGGNYTNYNEKFKGKATLTADTSSSTAYMQLINLTSEDSAIYYCVRAVADSQFAYWGQGTLVTVSA VL: QIVLTQSPAIMSVSPGEKVTMTCSASSRVTYMYWYQQKPGSSPKPWIYRTSNLASGVPVRFSGSGSGTSYSLTISSMEAEDAATYYCQQWSSNPLTFGAGTKLELK
2.05 nM	330000 delta MFI	no binding (tested: 1 and 10 µg/mL)	–	< 5%	binds	BL006-4-61G5-61K1 (antibody, V domains shown, Recombinant mIgG2a/kappa (also made as mIgG2a-D265A); also called BL006-4-61G5-61K1 #7; candidate NO 3) VH: EVKLEESGGGLVQPGGSMKLSCVASGFTFSNYWMNWVRQSPEKGLEWVAQIRFKSDNYATHYAESVKGRFTISRDDSKSSVYLQMHNLRAEDTGIYYCTEFAYWGQGTLVTVSA VL: QILLTQSPAIMSASPGEKVTMTCSASSRVNSRFLNWYQQKSGVSPKLWIYGTSNLASGVPARFSGSGSGTSYSLTISSVEAEDVATYYCQQYQSDPPITFGAGTRLELI
